Measurements as given in the supplement of paper PMC12042874.
± gives the uncertainty stated by the source.

Assay: amyloid nucleation score (Sup35N fusion, yeast selection) (log enrichment); library NNK1; higher = more nucleation; inactive = no reads after selection
In short: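 The nucleation score is the DiMSum log enrichment of output over input reads, centred on the mode score of non-aggregating sequences. Only sequences with 100 or more input reads were scored, using Illumina sequencing of input and output plasmid inserts. Psi-negative yeast expressing Sup35N fused to peptides of 20 random codons were induced 24 hours with 100 μM copper sulfate and grown 7 days at 30°C on medium lacking adenine and uracil.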

| Substance | amyloid nucleation score |
| --- | --- |
| SCNWDRNVLDMFFLN | inactive |
| LLGYRTYEMEHSCILRPRNK | 0.887 ± 0.57 |
| TKSMFGTCNMFKTKVLN | -0.101 ± 0.49 |
| YFAYQDILVNDTIRIL | 0.063 ± 0.56 |
| SYNTIIGSSCN | 0.701 ± 0.69 |
| PKCLNESMVGRRWLAIMGRV | 0.328 ± 0.72 |
| RRTLEAFICL | -0.312 ± 0.84 |
| FHALGCK | -0.38 ± 0.41 |
| IVHMIYWVM | 0.009 ± 0.61 |
| WDVIYVFFIHIYQSVGS | -0.48 ± 0.85 |
| RAFAFTW | 2.38 ± 0.14 |
| TRCCLFDRSSIYPSYCNEEA | -0.123 ± 0.9 |
| FAEENTSKFFSRKGEVCYMF | -0.113 ± 0.9 |
| QTFTYKCFIHYFMRMWLVQI | -0.005 ± 0.75 |
| HRGVLQLR | 0.764 ± 0.84 |
| DRVANNLMD | -0.344 ± 0.26 |
| ARGYPLTYKYQVSRGSRLTL | 0.439 ± 0.4 |
| WQVNVLIIMCGSFLLVFDFQ | 0.359 ± 0.45 |
| QVYYVCGYTSDKLLKNSYNN | -0.125 ± 0.45 |
| LCISARDLNNFGRNHMHFLL | -0.296 ± 0.34 |
| FLMGSYMFTTTVQISHDLMW | -0.354 ± 0.61 |
| HSASQLPYYQY | 0.498 ± 0.97 |

| Substance | amyloid nucleation score |
| --- | --- |
| SADKSSFKPFLESTASRVQI | -0.62 ± 1.1 |
| NGNNQYRPVCDYSYYRRSCS | -0.234 ± 1.6 |
| FICECCISLMIARHRALKPA | -1 ± 0.67 |
| LYTKFFEAMWQVWRFERTQR | 2.53 ± 0.21 |
| NKIGRAFVTSYGLRIHSGAG | -0.32 ± 0.76 |
| YLRVNAHMLDYSF | -0.513 ± 1 |
| LIQRLVFEYMFPVIGVPISW | -0.208 ± 0.65 |
| VDMNAEKTSSDERLWERRRT | 0.606 ± 0.65 |
| GELLTLHITGLNEVLVNTSM | -0.21 ± 0.31 |
| GVCVEFCLRGSRFWLMKNKA | 0.383 ± 0.84 |
| STLYLLHGRNSHTGRSFSRH | -1.01 ± 0.66 |
| SGVLVGYHRDLDVDMNLNPM | -0.419 ± 0.4 |
| RMSNDITNFSFTIVTM | 3.86 ± 0.08 |
| DFYFYKLSLIFKSAFRWFPV | -0.359 ± 1.2 |
| TLLRLFEKPLICYVIGRSLI | -1.09 ± 0.61 |
| IRHNTRRSSIRTET | 0.086 ± 0.49 |
| PMSRIKWILLSGLSKGLSYG | 2.41 ± 0.17 |
| GELWLAHLLLRSRVRTHRCP | 5.78 ± 0.068 |
| AGFVSVVVF | 0.005 ± 0.38 |
| DIPVSHGAYL | -0.378 ± 0.84 |
| LLVVRNLEGNNIHALVLCVG | 1.91 ± 0.21 |
| TVWTGQRRMRVSTGCLWSGG | inactive |

| Substance | amyloid nucleation score |
| --- | --- |
| SIGNKYKSIVWYFKCCLANL | 5.97 ± 0.066 |
| YYESRNWSILFRLINMF | -0.078 ± 0.46 |
| RREVRCSQR | -0.559 ± 0.61 |
| SSRLKL | 1 ± 0.25 |
| VWMYMHAFCYSTGRRKAMPG | -1.76 ± 0.77 |
| RHPSWLYDVFNIVLVITACW | -0.062 ± 0.97 |
| KCQIGSMVLSYMVELPGDRD | -0.171 ± 0.36 |
| KDALDHHLIMLRGYVVLQS | -0.891 ± 0.59 |
| LWEIRILLL | -0.994 ± 0.68 |
| SRTFVGGLGLVYEIFIVMAV | -0.301 ± 0.59 |
| LIMSFVFSI | 4.57 ± 0.08 |
| VWGINILMSFPIV | 5.674 ± 0.053 |
| INTFARRAVVSSLSWSLACH | 0.317 ± 0.64 |
| MVHKWVIFFNRTVCRLMLPV | 0.589 ± 0.37 |
| EIQSSRRKITISMPNRSIVV | 0.333 ± 0.25 |
| MKRASSLMINFMMPCNFYCG | 0.532 ± 0.62 |
| SMFNQRWWVSPVVYGLIVWP | 1.33 ± 0.79 |
| HVYVWKRTVPGIGRDQHNSR | 1.81 ± 0.6 |
| SKFIYRRLKELFVFGYSIVT | inactive |
| FYFSASATIL | -0.093 ± 0.81 |
| ARWKKQWFYT | 0.796 ± 0.58 |
| RVSRLPFDECSFLLVTVEGI | 0.311 ± 0.49 |

| Substance | amyloid nucleation score |
| --- | --- |
| KSDRIKLYNKCWELAVLMKK | -0.555 ± 1.1 |
| WCMATCLIMVCANYVICLVG | 0.927 ± 0.55 |
| SVKGRGRGILWMLAVSECVG | -0.762 ± 0.62 |
| KRSKN | 1.37 ± 0.8 |
| VGPIFLHTLRRSVN | -0.532 ± 0.83 |
| GVLRHNCFIESGRIISVMVT | -0.404 ± 0.65 |
| SIDRIRVSVHPLAFKIYLDV | 0.497 ± 0.43 |
| LSTLQQLGKLLNTVWDDLAQ | 0.048 ± 0.9 |
| GNKDDTV | -1.6 ± 1.1 |
| ECMGGVAIARNFATI | -1.11 ± 2.7 |
| WAMSTFSVYSKRTFVARWDK | 0.048 ± 0.29 |
| YYMMTKRGFNMILCCCCRCF | 0.667 ± 0.2 |
| TDPRNNACVFYVCYYTSCWD | 0.923 ± 0.66 |
| NIRKEGFFRFSPSTADTTCR | 0.618 ± 0.71 |
| LFGPDLSTRNPGDVSVQSAA | 0 ± 0.39 |
| WKNLGQV | -0.327 ± 0.39 |
| LQLTYPPLVVPSSRWCLLLS | -0.099 ± 0.97 |
| RDSQMMNT | 0.312 ± 0.37 |
| LNGRYLDVLHQVIHQNVREP | 3.01 ± 0.22 |
| FCPDICTWKNWSMWMQLEDL | 0.89 ± 0.54 |
